Data set [1] deals with AddAB helicase-nuclease (nuclease-deficient AddA D1172A, AddB D961A) AddA D1172A, AddB D961A (Bacillus subtilis). The settings on record: unwinding monitored with IDCC-SSB at low ionic strength (20 mM NaCl), 2 mM MgCl2, ATP, 37 C; weaker at 200 mM NaCl.
Data set [2] addresses 6-IATR-E. coli SSB (W88C) W88C (mature protein numbering as printed) (Escherichia coli) (UniProt P0AGE0). Conditions: data not shown.

In data set [1], EcoRI-linearized pBR322 yielded an activity (bp s-1 per binding site) of 1000.

In the case of poly-dT, the activity (fold fluorescence (+/- DNA)) in data set [2] was 4.5.

For the origin of these results see patent US20110177501.
